Laboratory results: article PMC12550933, “Novel Humanized Anti-HER3 Antibodies: Structural Characterization and Therapeutic Activity” (Antibodies, 2025)

Assays:
Conditions in all cases: both partners purified
[1] = biological target: T1, Recombinant human EGFR-Fc chimeric protein (Homo sapiens (Human)., UniProt P00533); assay: ELISA; plates coated with 1 µg/mL recombinant EGFR, ErbB2, HER3 or ErbB4 chimeric protein; purified antibodies at 10 µg/mL (Figure 3A) or in serial dilutions on human HER3 (Figure 3B)
T1 construct: human EGFR part of the bought Fc chimera; also called ErbB1; HER1; source: bought: R&D Systems

[2] = biological target: T2, Recombinant human ErbB4 chimeric protein (Homo sapiens (Human)., UniProt Q15303); assay: as above
T2 construct: human ErbB4 part of the bought chimeric protein; also called HER4; source: bought: R&D Systems
T2 sequence (Q15303 26-651, change not shown): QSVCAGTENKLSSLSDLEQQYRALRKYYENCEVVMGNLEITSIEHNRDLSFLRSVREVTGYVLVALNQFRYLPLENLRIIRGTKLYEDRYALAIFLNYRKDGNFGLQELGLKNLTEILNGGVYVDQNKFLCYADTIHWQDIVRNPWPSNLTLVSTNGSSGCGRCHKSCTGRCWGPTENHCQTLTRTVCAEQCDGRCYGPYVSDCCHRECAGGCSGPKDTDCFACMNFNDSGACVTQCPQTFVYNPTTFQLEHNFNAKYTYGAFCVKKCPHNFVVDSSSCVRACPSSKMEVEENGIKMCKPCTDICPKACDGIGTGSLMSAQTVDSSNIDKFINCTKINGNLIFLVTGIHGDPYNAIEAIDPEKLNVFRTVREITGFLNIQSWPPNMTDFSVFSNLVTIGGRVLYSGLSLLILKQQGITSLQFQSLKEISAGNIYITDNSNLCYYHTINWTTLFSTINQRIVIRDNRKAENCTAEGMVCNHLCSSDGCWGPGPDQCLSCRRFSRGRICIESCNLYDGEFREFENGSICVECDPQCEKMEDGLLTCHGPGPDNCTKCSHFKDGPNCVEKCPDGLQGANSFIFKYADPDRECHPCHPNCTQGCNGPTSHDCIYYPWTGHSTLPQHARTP

[3] = biological target: T3, Recombinant human ErbB2 chimeric protein (Homo sapiens (Human)., UniProt P04626); assay: as above
T3 construct: human ErbB2 part of the bought chimeric protein; also called HER2; source: bought: R&D Systems

Mouse HER3/HER3 (HisTag) = biological target: T4, Mouse HER3/HER3 (HisTag) (mouse, UniProt Q61526); assay: ELISA; plates coated with 1 µg/mL recombinant human, mouse, rat or rhesus HER3 (His tag); purified antibodies, dose-response
T4 construct: mouse HER3 (ErbB3), bought recombinant protein; probably the extracellular domain (surmise); also called recombinant mouse HER3; source: bought: Sinobiological
T4 sequence (Q61526 20-641): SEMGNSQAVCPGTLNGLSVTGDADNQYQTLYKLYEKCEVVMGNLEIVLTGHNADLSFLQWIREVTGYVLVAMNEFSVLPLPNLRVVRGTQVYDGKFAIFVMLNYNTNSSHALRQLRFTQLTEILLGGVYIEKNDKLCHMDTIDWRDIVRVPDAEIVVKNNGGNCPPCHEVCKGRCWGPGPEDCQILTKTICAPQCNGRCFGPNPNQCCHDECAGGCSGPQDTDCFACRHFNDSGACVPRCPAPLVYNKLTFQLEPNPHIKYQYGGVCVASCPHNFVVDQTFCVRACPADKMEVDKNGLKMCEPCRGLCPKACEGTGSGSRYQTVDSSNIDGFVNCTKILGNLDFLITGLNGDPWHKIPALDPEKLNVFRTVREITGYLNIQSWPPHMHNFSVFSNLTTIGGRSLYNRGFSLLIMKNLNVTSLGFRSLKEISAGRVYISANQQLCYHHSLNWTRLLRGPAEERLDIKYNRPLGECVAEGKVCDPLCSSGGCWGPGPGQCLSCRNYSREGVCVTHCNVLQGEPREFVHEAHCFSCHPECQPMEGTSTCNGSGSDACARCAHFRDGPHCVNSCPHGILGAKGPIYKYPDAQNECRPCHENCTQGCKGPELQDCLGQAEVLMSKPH

[4] = biological target: T5, Rhesus HER3/HER3 (HisTag) (Macaca mulatta, UniProt H9ERZ8); assay: as above
T5 construct: rhesus HER3 (ErbB3), bought recombinant protein; probably the extracellular domain (surmise); also called recombinant rhesus HER3; source: bought: Sinobiological

Rat HER3/HER3 (HisTag) = biological target: T6, Rat HER3/HER3 (HisTag) (rat, UniProt Q62799); assay: as above
T6 construct: rat HER3 (ErbB3), bought recombinant protein; probably the extracellular domain (surmise); also called recombinant rat HER3; source: bought: Sinobiological
T6 sequence (Q62799 20-643): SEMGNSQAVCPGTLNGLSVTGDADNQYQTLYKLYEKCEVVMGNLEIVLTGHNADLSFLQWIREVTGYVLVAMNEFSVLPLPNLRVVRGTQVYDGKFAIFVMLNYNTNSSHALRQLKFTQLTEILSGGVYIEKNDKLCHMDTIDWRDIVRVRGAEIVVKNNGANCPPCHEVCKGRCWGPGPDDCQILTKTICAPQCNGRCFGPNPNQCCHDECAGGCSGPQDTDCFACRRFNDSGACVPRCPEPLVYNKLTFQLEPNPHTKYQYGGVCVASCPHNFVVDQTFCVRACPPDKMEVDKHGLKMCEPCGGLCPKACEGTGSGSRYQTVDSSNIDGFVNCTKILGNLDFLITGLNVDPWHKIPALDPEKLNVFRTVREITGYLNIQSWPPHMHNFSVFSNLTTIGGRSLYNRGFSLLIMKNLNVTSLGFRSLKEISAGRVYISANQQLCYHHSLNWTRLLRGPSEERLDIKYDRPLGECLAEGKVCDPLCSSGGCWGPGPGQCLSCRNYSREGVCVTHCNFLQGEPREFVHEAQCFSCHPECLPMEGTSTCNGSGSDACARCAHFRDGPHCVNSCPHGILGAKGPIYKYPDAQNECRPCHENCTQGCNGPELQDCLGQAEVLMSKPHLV

[5] = biological target: T7, HER3 peptide #55 (15-mer of the overlapping peptide library) (Homo sapiens, UniProt P21860); assay: peptide or protein array; ELISA on plates coated with 1 µg/mL of 15-mer HER3 peptides with 11 residues overlap; antibody at 1 µg/mL overnight at 4 °C
T7 construct: 15-mer of human HER3 from a library of 15-mers with 11 residues overlap; Limits worked out from the printed core and the 11-residue overlap; source: synthetic peptide (JPT Peptide Technologies)
T7 chain: HCFGPNPNQCCHDEC

[6] = biological target: T8, HER3 peptide #54 (15-mer of the overlapping peptide library) (Homo sapiens, UniProt P21860); assay: as above
T8 construct: 15-mer of human HER3 from a library of 15-mers with 11 residues overlap; Limits worked out from the printed core and the 11-residue overlap; source: synthetic peptide (JPT Peptide Technologies)
T8 chain: QCNGHCFGPNPNQCC

[7] = biological target: T9, human HER3-Fc chimeric protein (Homo sapiens, UniProt P21860); assay: SPR; Biacore X100; HER3 Fc chimera coupled to a CM5 chip; antibodies as analytes, single-cycle kinetics, 25 °C; duplicate; KD = koff/kon
T9 construct: human HER3 (ErbB3) part of the bought Fc chimera; also called HER3 Fc chimera protein; Recombinant human HER3/HER3-Fc chimeric protein; source: bought: R&D Systems
T9 sequence (P21860 20-643, change not shown): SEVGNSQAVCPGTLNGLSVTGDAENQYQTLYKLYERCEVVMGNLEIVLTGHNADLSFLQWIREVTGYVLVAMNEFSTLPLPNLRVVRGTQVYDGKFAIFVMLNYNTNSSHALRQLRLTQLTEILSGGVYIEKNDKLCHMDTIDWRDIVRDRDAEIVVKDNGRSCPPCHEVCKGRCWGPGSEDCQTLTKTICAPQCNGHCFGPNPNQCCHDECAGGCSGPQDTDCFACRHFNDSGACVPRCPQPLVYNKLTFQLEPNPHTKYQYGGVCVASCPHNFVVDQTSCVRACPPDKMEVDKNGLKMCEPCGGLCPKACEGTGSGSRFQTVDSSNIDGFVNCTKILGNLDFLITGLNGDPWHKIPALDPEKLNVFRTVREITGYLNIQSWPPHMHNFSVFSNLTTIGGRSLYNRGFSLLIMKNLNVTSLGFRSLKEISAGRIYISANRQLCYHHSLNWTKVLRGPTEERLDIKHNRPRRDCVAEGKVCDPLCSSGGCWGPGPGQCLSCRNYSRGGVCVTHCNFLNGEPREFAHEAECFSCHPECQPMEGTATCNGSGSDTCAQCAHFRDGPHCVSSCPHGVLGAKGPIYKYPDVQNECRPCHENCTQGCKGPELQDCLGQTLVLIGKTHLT

B1: TK-hu A3-H1L1 humanized anti-HER3 monoclonal antibody (human IgG1, kappa) (antibody, V domains shown)
VH: QVTLRESGPALVKPTQTLTLTCTFSGFSLSTYGMGVGWIRQPPGKALEWLANIWWNDDKYYSSSLKTRLTISKDTSKNQVVLTMTNMDPVDTATYYCVQIANPYWYFDVWGQGTTVTVSS
VL: DIVMTQTPLSLSVTPGQPASISCKSSQSLLHSYGNTYLEWYLQKPGQSPQLLIYRVSNRFSGVPDRFSGSGSGTDFTLKISRVEAEDVGVYYCFQGSHVPFTFGQGTKLEIK
notes: humanized heavy chain variable region, variant H1 (germline CDR grafting of murine TK-A3); they are in PDB 9I1Q chain I (also J, K, L), which also holds CH1 of the Fab; human IgG1 constant region present in the expression vector; humanized light chain variant L1 in frame with the human kappa constant region; the whole light chain is in PDB 9I1Q chain F (also E, G, H); IgG1 kappa; also called …
- binding result [1]: no binding (tested: 10 µg/mL)
- binding result [2]: no binding (tested: 10 µg/mL)
- binding result [3]: no binding (tested: 10 µg/mL)
- binding result (Mouse HER3/HER3 (HisTag)): binds
- binding result [4]: binds
- binding result (Rat HER3/HER3 (HisTag)): binds
- binding result [5]: binds
- binding result [6]: binds
- Kd [7]: 1.81 nM
- koff [7]: 0.000113 s⁻¹
- kon [7]: 62400 M⁻¹ s⁻¹
